Measurements published in the supplement of paper PMC10567573.

B1: DLC1 (parent)
chain: AEVVKIRDSFSNQNTETKDTKSR

Variants of: B1
Assay: protein stability index of a GFP-peptide fusion (GPS, HEK-293T) (PSI 1-6); higher = more stable
Conditions: c terminus: native
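Note: lentivirally expressed fusions sorted by FACS into six bins by GFP to DsRed ratio, PSI derived from sequencing read proportions per bin multiplied by bin number.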

Variant | protein stability index
AEVVKIRDSFSNQNTETKDTKPR | 4.53
AEVVKIRDSFSNQNTETKDTKKR | 2.92
AEVVKIRDSFSNQNTETKDTKVR | 2.98
AEVVKIRDSFSNQNTETKDTKRR | 2.75
AEVVKIRDSFSNQNTETKDTKWR | 3.96
AEVVKIRDSFSNQNTETKDTKLR | 3.48
AEVVKIRDSFSNQNTETKDTKMR | 4.06
AEVVKIRDSFSNQNTETKDTKCR | 1.82
AEVVKIRDSFSNQNTETKDTKTR | 3.04
AEVVKIRDSFSNQNTETKDTKDR | 3.23
AEVVKIRDSFSNQNTHTKDTKSR | 3
AEVVKIRDSFSNQNTYTKDTKSR | 1.31
AEVVKIRDSFSNQNTMTKDTKSR | 1.51
AEVVKIRDSFSNQNTRTKDTKSR | 2.31
AEVVKIRDSFSNQNTPTKDTKSR | 2.41
AEVVKIRDSFSNQNTLTKDTKSR | 1.91
AEVVKIRDSFSNQNTERKDTKSR | 1.84
AEVVKIRDSFSNQNTEWKDTKSR | 3.5
AEVVKIRDSFSNQNTEGKDTKSR | 4.08
AEVVKIRDSFSNQNTEPKDTKSR | 2.97
AEVVKIRDSFSNQNTEMKDTKSR | 2.68
AEVVKIRDSFSNQNTEQKDTKSR | 2.61
AEVVKIRDSFSNQNTENKDTKSR | 1.86
AEVVKIRDSFSNQNTEYKDTKSR | 2.31
AEVVIIRDSFSNQNTETKDTKSR | 2.02

Variant | protein stability index
AEVVEIRDSFSNQNTETKDTKSR | 3.01
AEVVRIRDSFSNQNTETKDTKSR | 2.33
AEVVNIRDSFSNQNTETKDTKSR | 2.93
AEVVCIRDSFSNQNTETKDTKSR | 2.88
AEVVWIRDSFSNQNTETKDTKSR | 1.84
AEVVLIRDSFSNQNTETKDTKSR | 2.4
AEVVVIRDSFSNQNTETKDTKSR | 1.94
AEVVYIRDSFSNQNTETKDTKSR | 2.13
AEVVQIRDSFSNQNTETKDTKSR | 2.43
AEVVAIRDSFSNQNTETKDTKSR | 2
AEVVKIIDSFSNQNTETKDTKSR | 2.52
AEVVKIADSFSNQNTETKDTKSR | 3.56
AEVVKISDSFSNQNTETKDTKSR | 2.42
AEVVKIYDSFSNQNTETKDTKSR | 1.77
AEVVKIGDSFSNQNTETKDTKSR | 2.87
AEVVKIDDSFSNQNTETKDTKSR | 3.65
AEVVKIKDSFSNQNTETKDTKSR | 2.88
AEVVKIHDSFSNQNTETKDTKSR | 2.21
AEVVKIRDSFSYQNTETKDTKSR | 1.78
AEVVKIRDSFSEQNTETKDTKSR | 2.71
AEVVKIRDSFSVQNTETKDTKSR | 1.68
AEVVKIRDSFSCQNTETKDTKSR | 1.63
AEVVKIRDSFSKQNTETKDTKSR | 2.17
AEVVKIRDSFSGQNTETKDTKSR | 2.51
AEVVKIRDSFSQQNTETKDTKSR | 2.03

Variant | protein stability index
AEVVKIRDSFSRQNTETKDTKSR | 1.7
AEVVKIRDSFSPQNTETKDTKSR | 1.95
AEVVKIRDSFSFQNTETKDTKSR | 1.81
AEVVKIRDSFSMQNTETKDTKSR | 2.5
AEVVKIRDSFSIQNTETKDTKSR | 2.17
AEVVKIRDSFSNQNTETKDTHSR | 2.96
AEVVKIRDSFSNQNTETKDTYSR | 3.57
AEVVKIRDSFSNQNTETKDTDSR | 5.42
AEVVKIRDSFSNQNTETKDTASR | 5.24
AEVVKIRDSFSNQNTETKDTMSR | 4.99
AEVVKIRDSFSNQNTETKDTISR | 4.85
AEVVKIRDSFSNQNTETKDTQSR | 4.95
AEVVKIRDSFSNQNTETKDTFSR | 4.8
AEVVKIRDSFSNQNTETKDTESR | 5.2
AEVVKIRDSFSNQNTETKDTPSR | 3.51
AEVVKIRDSFSNQNTETKDHKSR | 2.09
AEVVKIRDSFSNQNTETKDVKSR | 2.61
AEVVKIRDSFSNQNTETKDFKSR | 1.36
AEVVKIRDSFSNQNTETKDNKSR | 3.98
AEVVKIRDSFSNQNTETKDPKSR | 2.88
AEVVKIRDSFSNQNTETKDMKSR | 1.96
AEVVKIRDSFSNQNTETKDDKSR | 2.23
AEVVKIRDSFSNQNTETKDQKSR | 2.42
AEVVKIRDSFSNQNTETKDCKSR | 1.93
AEVVKIRDSFSNQNTETKDLKSR | 2.71

Variant | protein stability index
AEVVKIRDSFSNQNTETKDIKSR | 2.7
AEVVKIRDSFSNQNTETKDKKSR | 4.33
AEVVKIRDSFSNQNTETKDRKSR | 4.41
AEVVKKRDSFSNQNTETKDTKSR | 3.3
AEVVKFRDSFSNQNTETKDTKSR | 2.41
AEVVKQRDSFSNQNTETKDTKSR | 2.67
AEVVKARDSFSNQNTETKDTKSR | 2.47
AEVVKSRDSFSNQNTETKDTKSR | 2.74
AEVVKTRDSFSNQNTETKDTKSR | 3.6
AEVVKPRDSFSNQNTETKDTKSR | 3.4
AEVVKGRDSFSNQNTETKDTKSR | 2.38
AEVVKYRDSFSNQNTETKDTKSR | 2.65
AEVVKIRDSFSNQPTETKDTKSR | 3.12
AEVVKIRDSFSNQVTETKDTKSR | 1.66
AEVVKIRDSFSNQATETKDTKSR | 1.86
AEVVKIRDSFSNQQTETKDTKSR | 2.37
AEVVKIRDSFSNQFTETKDTKSR | 1.93
AEVVKIRDSFSNQDTETKDTKSR | 2.33
AEVVKIRDSFSNQITETKDTKSR | 2.08
AEVVKIRDSFDNQNTETKDTKSR | 2.05
AEVVKIRDSFINQNTETKDTKSR | 1.9
AEVVKIRDSFWNQNTETKDTKSR | 1.88
AEVVKIRDSFQNQNTETKDTKSR | 2.62
AEVVKIRDSFFNQNTETKDTKSR | 2.85
AEVVKIRDSFENQNTETKDTKSR | 2.4

Variant | protein stability index
AEVVKIRDSFCNQNTETKDTKSR | 2.58
AEVVKIRDSFANQNTETKDTKSR | 1.9
AEVVKIRDSFLNQNTETKDTKSR | 1.88
AEVVKIRDSFRNQNTETKDTKSR | 2.78
AEVVKIRDSFGNQNTETKDTKSR | 2.36
AEVVKIRDSSSNQNTETKDTKSR | 4
AEVVKIRDSQSNQNTETKDTKSR | 3.46
AEVVKIRDSDSNQNTETKDTKSR | 4
AEVVKIRDSLSNQNTETKDTKSR | 3.26
AEVVKIRDSASNQNTETKDTKSR | 3.76
AEVGKIRDSFSNQNTETKDTKSR | 2.01
AEVDKIRDSFSNQNTETKDTKSR | 3.04
AEVPKIRDSFSNQNTETKDTKSR | 3.04
AEVRKIRDSFSNQNTETKDTKSR | 2.3
AEVWKIRDSFSNQNTETKDTKSR | 2.05
AEVYKIRDSFSNQNTETKDTKSR | 2.76
AEVKKIRDSFSNQNTETKDTKSR | 2.3
AEVTKIRDSFSNQNTETKDTKSR | 2.18
AEVEKIRDSFSNQNTETKDTKSR | 2.59
PEVVKIRDSFSNQNTETKDTKSR | 1.72
KEVVKIRDSFSNQNTETKDTKSR | 3.16
QEVVKIRDSFSNQNTETKDTKSR | 3.03
WEVVKIRDSFSNQNTETKDTKSR | 2.76
NEVVKIRDSFSNQNTETKDTKSR | 3.03
SEVVKIRDSFSNQNTETKDTKSR | 1.75

Variant | protein stability index
TEVVKIRDSFSNQNTETKDTKSR | 2.08
AEVVKIRHSFSNQNTETKDTKSR | 2.41
AEVVKIRMSFSNQNTETKDTKSR | 1.65
AEVVKIRVSFSNQNTETKDTKSR | 3.31
AEVVKIRYSFSNQNTETKDTKSR | 3.5
AEVVKIRPSFSNQNTETKDTKSR | 1.73
AEVVKIRASFSNQNTETKDTKSR | 2.53
AEVVKIRDSFSNQNTETADTKSR | 1.17
AEVVKIRDSFSNQNTETPDTKSR | 2.15
AEVVKIRDSFSNQNTETDDTKSR | 1.39
AEVVKIRDSFSNQNTETWDTKSR | 2.05
AEVVKIRDSFSNQNTETEDTKSR | 1.7
AEVVKIRDSFSNQNTETNDTKSR | 1.98
AEVVKIRDSFSNQNTETGDTKSR | 2.13
AEVVKIRDSFSNQNTETFDTKSR | 2.59
AEVVKIRDSFSNQNSETKDTKSR | 2.75
AEVVKIRDSFSNQNVETKDTKSR | 2.38
AEVVKIRDSFSNQNCETKDTKSR | 2.08
AEVVKIRDSFSNQNIETKDTKSR | 1.62
AEVVKIRDSFSNQNEETKDTKSR | 3.38
AEVVKIRDSFSNQNAETKDTKSR | 2.14
AEVVKIRDSFSNQNDETKDTKSR | 3.36
AEVVKIRDSFSNQNQETKDTKSR | 2.98
AEVVKIRDSFSNQNWETKDTKSR | 2.05
AEVVKIRDFFSNQNTETKDTKSR | 1.48

Variant | protein stability index
AEVVKIRDDFSNQNTETKDTKSR | 2.27
AEVVKIRDMFSNQNTETKDTKSR | 2.92
AEVVKIRDRFSNQNTETKDTKSR | 2.53
AEVVKIRDIFSNQNTETKDTKSR | 1.49
AEVVKIRDTFSNQNTETKDTKSR | 2.29
AEVVKIRDHFSNQNTETKDTKSR | 3.54
AEVVKIRDSFSNQNTETKRTKSR | 1.84
AEVVKIRDSFSNQNTETKITKSR | 2.29
AEVVKIRDSFSNQNTETKATKSR | 1.79
AEVVKIRDSFSNQNTETKLTKSR | 2.1
AEVVKIRDSFSNQNTETKPTKSR | 3.03
AEVVKIRDSFSNQNTETKMTKSR | 1.95
AEAVKIRDSFSNQNTETKDTKSR | 2.24
AERVKIRDSFSNQNTETKDTKSR | 1.89
AEMVKIRDSFSNQNTETKDTKSR | 2.87
AEKVKIRDSFSNQNTETKDTKSR | 4.55
AEHVKIRDSFSNQNTETKDTKSR | 2
AECVKIRDSFSNQNTETKDTKSR | 2.69
AMVVKIRDSFSNQNTETKDTKSR | 1.63
ADVVKIRDSFSNQNTETKDTKSR | 2.99
AGVVKIRDSFSNQNTETKDTKSR | 1.95
AVVVKIRDSFSNQNTETKDTKSR | 1.7
AYVVKIRDSFSNQNTETKDTKSR | 1.52
ALVVKIRDSFSNQNTETKDTKSR | 1.03
ATVVKIRDSFSNQNTETKDTKSR | 3.03

Variant | protein stability index
AKVVKIRDSFSNQNTETKDTKSR | 1.81
AEVVKIRDSFSNQNTETKDTKSV | 5.51
AEVVKIRDSFSNQNTETKDTKST | 5.55
AEVVKIRDSFSNQNTETKDTKSQ | 5.65
AEVVKIRDSFSNQNTETKDTKSP | 5.32
AEVVKIRDSFSNQNTETKDTKSF | 4.83
AEVVKIRDSFSNQNTETKDTKSH | 5.37
AEVVKIRDSFSNQNTETKDTKSL | 5.49
AEVVKIRDSFSNQNTETKDTKSC | 4.75
AEVVKIRDSFSNQNTETKDTKSD | 5.6
AEVVKIRDSFSNQNTETKDTKSY | 4.56
AEVVKIRDSFSNSNTETKDTKSR | 1.87
AEVVKIRDSFSNPNTETKDTKSR | 2.4
AEVVKIRDSFSNENTETKDTKSR | 2.9
AEVVKIRDSFSNHNTETKDTKSR | 2.32
AEVVKIRDSFSNYNTETKDTKSR | 2.92
AEVVKIRDSFSNRNTETKDTKSR | 3.77
AEVVKIRDSFSNDNTETKDTKSR | 2.37
AEVVKIRDSFSNLNTETKDTKSR | 2.31
